In publication PMC10327126:

Molecular target: GST-NTF2L-F33W (human)
Test: SPR

With “N_(1–25)-WT peptide (from UniProt P0DTC9 1-25)” the Kd was 1920 nM.
